The test concerns the target T1, human Her3-His recombinant protein (human, UniProt P21860 20-643).
T1 construct: Recombinant His-tagged human Her3; not shown: His tag
Put plainly: BLI (Fortebio Octet 96e), antibody loaded on AMC sensor, human Her3-His 100-3.13 nM in solution. In general terms: Biolayer interferometry detects binding as a change in optical thickness at a sensor tip.

T1 sequence (P21860 20-643 limits assumed): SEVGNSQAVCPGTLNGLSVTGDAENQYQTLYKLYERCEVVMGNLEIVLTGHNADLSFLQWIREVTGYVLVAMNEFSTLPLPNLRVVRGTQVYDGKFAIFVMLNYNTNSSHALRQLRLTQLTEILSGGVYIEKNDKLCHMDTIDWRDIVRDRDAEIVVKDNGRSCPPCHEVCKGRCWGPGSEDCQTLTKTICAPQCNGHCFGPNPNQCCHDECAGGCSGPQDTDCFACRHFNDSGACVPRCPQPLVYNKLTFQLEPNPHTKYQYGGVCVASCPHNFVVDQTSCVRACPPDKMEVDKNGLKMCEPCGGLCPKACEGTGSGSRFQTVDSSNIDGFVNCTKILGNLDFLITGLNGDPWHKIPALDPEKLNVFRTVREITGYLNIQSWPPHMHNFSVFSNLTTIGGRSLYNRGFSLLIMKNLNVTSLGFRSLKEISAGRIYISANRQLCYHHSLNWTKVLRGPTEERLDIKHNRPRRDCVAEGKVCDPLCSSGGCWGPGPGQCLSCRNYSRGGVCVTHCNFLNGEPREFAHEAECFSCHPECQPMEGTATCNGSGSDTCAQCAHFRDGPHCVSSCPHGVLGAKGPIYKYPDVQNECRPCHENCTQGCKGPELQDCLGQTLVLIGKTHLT

B1: monoclonal antibody 2F8 (antibody, V domains shown)
VH: QVQLQQWGAGLLKPSETLSLTCAVYGGSFSGYYWSWIRQPPGKGLEWIGEINHSGSTNYNPSLKSRVTISVETSKNQFSLKLSSVTAADTAVYYCARDKWTWYFDLWGRGTLVTVSS
VL: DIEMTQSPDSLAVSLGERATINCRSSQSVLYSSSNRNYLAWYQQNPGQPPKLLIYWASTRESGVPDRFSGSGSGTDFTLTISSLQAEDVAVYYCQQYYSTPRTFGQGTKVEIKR
notes: also called 2F8-new; parental molecule 2F8
On to B1, for which the Kd (commonly the constant that tells how readily two partners part at equilibrium) came out at 2.43 nM; the koff – broadly, the first-order rate constant of dissociation – worked out at 0.000357 s⁻¹; the kon (as a rule, the second-order rate constant of association) was 147000 M⁻¹ s⁻¹.

B2: antibody 3F5 (light chain mutant 2F8-Lm1 combined with heavy chain 2F8-H-new) (antibody, human IgG1, kappa, V domains shown)
VH: QVQLQQWGAGLLKPSETLSLTCAVYGGSFSGYYWSWIRQPPGKGLEWIGEINHSGSTNYNPSLKSRVTISVETSKNQFSLKLSSVTAADTAVYYCARDKWTWYFDLWGRGTLVTVSS
VL: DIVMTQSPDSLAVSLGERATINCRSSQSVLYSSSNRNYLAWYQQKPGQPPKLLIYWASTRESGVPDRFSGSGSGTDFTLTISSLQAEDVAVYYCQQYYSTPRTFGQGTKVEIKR
notes: also called 2F8-m1; 3F5 mutant
Take B2: the Kd stood at 2.53 nM, the koff was found to be 0.000393 s⁻¹ and the kon came out at 156000 M⁻¹ s⁻¹.
